Assay results: the nanobody polyreactivity screen of Harvey et al. (2022)

Test: yeast display, Sf9 membrane polyspecificity reagent, FACS + sequencing; frameworks hold sequencing errors
Procedure, shortened: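 Nanobodies came from a synthetic yeast display library in Saccharomyces cerevisiae BJ5465, induced with galactose for 36–48 hours and stained for 1 hour at 4 °C with 10% biotinylated, detergent-solubilized Sf9 membrane reagent. Cells were enriched on streptavidin microbeads and then FACS-sorted, with low and high (top ~1%) gates set on anti-HA fluorescence for expression and streptavidin fluorescence for reagent binding. Each polyreactivity label reflects the gate a clone came from. Genes were amplified by colony PCR, sequenced by MiSeq 2 × 250 and filtered by CDR length.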

Sequence | polyreactivity (PSR sort gate)
QVQLVESGGGLVQAGGSLRLSCAASGRTFQYYAMGWYRQAPGKERELVAAISWSGGSTYYADSVKGRFTISRDNAKNTVYLQMNSLKPEVTAVYYCAASFRGQIVGYWGQGTQVTVSS | high polyreactivity
QVQLVESGGGLVQAGGSLRLSCAASGRTFQYYAMGWYRQAPGKERELVAAITWTGGSTYYADSVKGRFTISRDNAKNTVYLQKNSLKPEDTAVYYCIARYKTLGSQSRSGPGGKYGYWGQGTQVTVSS | high polyreactivity
QVQLVESGGGLVQAGGSLRLSCAASGRTFQYYTMGWYRQAPGKERELVAAIRRGGSTYYADSVKGRFTISRDNAKNTVYLEMNSLKPEDTAVYYCAALYAFSLTARGMEYWGQGTQVTVSS | high polyreactivity
QVQLVESGGGLVQAGGSLRLSCAASGRTFRANAMGWYRTAPGKEMELVAAISQRGGNTYYADSVKGRFTISRDNAKYTVYLQMNSLKPEDTAVYYCAADITTYRRGRYEYEFWGQGTQVTVSS | high polyreactivity
QVQLVESGGGLVQAGGSLRLSCAASGRTFRDNAMGWYRQAPGKERELVAVITVDSSSTYYADSVKGRFTISRDNAKNTVYLQMNSLKPEDTAVYYCAAELYYFWFDYWGQGTQVTVSS | low polyreactivity
QVQLVESGGGLVQAGGSLRLSCAASGRTFRDYVMGWYRPAPGKERELVAAISTRGASTYYADSVKGRFTISRDNAKNTVYLQMNSLKPEDTAVYYCAARSTRRGNEYDYWGQGTQVTVSS | high polyreactivity
QVQLVESGGGLVQAGGSLRLSCAASGRTFRFNAMGWYRQAPGKERELVAAISSSGDSTYYADSVKGRFTISRDNAKNTVYLQMNSLKPEDTAVYYCAVRSRTPRAYYYWGQGTQVTVSS | low polyreactivity
QVQLVESGGGLVQAGGSLRLSCAASGRTFRFYAMGCYRQAPGKERELVAAINYGGGNTYYADSVKGRFTISRDNAKNTVYLQMNILKPEDTAVYYCAAQYYYRARWFPYDYWGQGTQVTVSS | high polyreactivity
QVQLVESGGGLVQAGGSLRLSCAASGRTFRFYAMGWYRQAPGKEREFVAAISRCVGSTYYADSVKGRFTISRDNAKNNVYLQMNSLKPEDTAVYYCNADYRSRYVEYDYWGQGTQVTVSS | high polyreactivity
QVQLVESGGGLVQAGGSLRLSCAASGRTFRFYAMGWYRQAPGKEREFVASISRGGITYYADSVKGRFTISRDNAKNTVYLQMNSLKPEDTAVYYCAAGYPVLLERYSSFGGYYYWGHGTQVTVSS | high polyreactivity
QVQLVESGGGLVQAGGSLRLSCAASGRTFRFYAMGWYRQAPGKERELVAAIRWSGGSTYYADSVKGRFTISRDNAKNTVYLQMNSLKPEETAVYYCAAARWSQYRTWMNYWGQGTQVTVSS | high polyreactivity
QVQLVESGGGLVQAGGSLRLSCAASGRTFRGNAMGWYRQAPGKERELVAAINWGVGSTYYADSVKGRFTISRDNAKNTVYLQMNSLKPEDTAVYYCATRSYRGRDGFGYWGQGTQVTVSS | high polyreactivity
QVQLVESGGGLVQAGGSLRLSCAASGRTFRGNAMGWYRQAPGKERELVAAITSSGGGTYYADSVKGRFTISRDNAKNTVYLQMYSLKPEDTAVYYCAAEYRDGYRFSYDYWGQGTQVTVSS | low polyreactivity
QVQLVESGGGLVQAGGSLRLSCAASGRTFRGNDMGWYRQAPGKERELVAAISWSGGGTYYADSVKGRFTISRDNAKNTVYLQMNSLKPEDTAVYYCAADLPHFRYYYWGQGTQVTVSS | low polyreactivity
QVQLVESGGGLVQAGGSLRLSCAASGRTFRGYAMGWYRQAPGKERELVAAINFSAGITYYADSVKGRFTISRDNAKNTVYLQMNSLKPEDTAVYYCAAEPEWWWRGYGYWGQGTLVTVSS | low polyreactivity
QVQLVESGGGLVQAGGSLRLSCAASGRTFRHNDMGWYRQAPGKERELVAAISYSGGSTHYADSVKGRFTISRDNAKNTVYLQMNSLKPEDTAVYYCNRYSYDSHFLYPFRGHDYWGQGTQVTVSS | low polyreactivity
QVQLVESGGGLVQAGGSLRLSCAASGRTFRHNTMGWYRQAPGKEREFVAVITTSGGSTYYADSVKGRFTISRDNAKNTVYLQMNSMKPEDTAVYYCNAKYHLSRSTYYYWGQGTQVTVSS | high polyreactivity
QVQLVESGGGLVQAGGSLRLSCAASGRTFRHYAMGWYRQAPGKDRELVAAISGSGGRTYYADSVKGRFTISRDNAKNTVYLQMNSLKPEDTAVYYCATRHTTRFYWGQGTQVTVSS | high polyreactivity
QVQLVESGGGLVQAGGSLRLSCAASGRTFRHYAMGWYRQAPGKERELVAAISGSGGRTYYADSVKGRFTISRDNAKNTVYLQMNSLKPEDTAVYYCNAYTWTYGEYEYWGQGTQVTVSS | high polyreactivity
QVQLVESGGGLVQAGGSLRLSCAASGRTFRIYAMGWYRQAPGKERELVAAIRWSGGTTYYADSVKGRFTISRDNAKNTVYLQRNSLKPEDTAVYYCAADSTNRYDYWGQGTQVTVSS | high polyreactivity
QVQLVESGGGLVQAGGSLRLSCAASGRTFRKYAMGWYRQAPGKEMELVAGITSIGGRTYYADSVKGRFTISRDNAKNTVYLQMNSLKPEDTAVYYCAADSIGRKNWSLHSNYWGQGTQVTVSS | low polyreactivity
QVQLVESGGGLVQAGGSLRLSCAASGRTFRKYAMGWYRQAPGKERELVAGITSIGGRTYYADSVKGRFTISRDNAKNTVYLQMNSLKPEDTAVYYCAAEPYGGGVKHSAYDYCGQGTQVTVSS | low polyreactivity

Sequence | polyreactivity (PSR sort gate)
QVQLVESGGGLVQAGGSLRLSCAASGRTFRKYTMGWYRQAPGKERELVAAITLSGGSTYYADSVKGRFTISRDNAKNTVYLQMNSLKPEDTAVYYCAARYNRGAFDYWGQGTQVTVSS | high polyreactivity
QVQLVESGGGLVQAGGSLRLSCAASGRTFRLFAMGWYRQAPGKERELVAAIRSGGNTNYADSVKGRFTISRDNAKNTVYLQMNSLKPEDTAVYYCAATTYVVASRYVGSLGDDYWGHGTQVTVSS | high polyreactivity
QVQLVESGGGLVQAGGSLRLSCAASGRTFRLYAMGWHRQAPGKERELVAAITRGGRTNYADSVKGRFTISRDNAKNTVYLQMNSLKPEDTAVYYCAARYVERHTDYYYWGQGTQVTVSS | low polyreactivity
QVQLVESGGGLVQAGGSLRLSCAASGRTFRLYAMGWYRQAHGKERELVARISRGGSTYYADSVKGRFTISRDNAKNTVYLQMNSLKPEDTAVYYCAAVAYALGFASKEDYWGQGTQVTVSS | high polyreactivity
QVQLVESGGGLVQAGGSLRLSCAASGRTFRLYAMGWYRQAPGKERALVAAITGVGSTNYADSVKGRFTISRDNAKNTVYLQMNSLKPEDTAVYYCAAYYWSQVLIQGYYSWGQGTQVTVSS | high polyreactivity
QVQLVESGGGLVQAGGSLRLSCAASGRTFRLYAMGWYRQAPGKERELVAAITRGGRTNYADSVKGRFTISRDNAKNTVYLQMNSLKPEDPAVYYCAARYVERHTDYYYWGQGTQVTVSS | low polyreactivity
QVQLVESGGGLVQAGGSLRLSCAASGRTFRNNAMGWYRQAPGKERELVASISKSGGRTYYADSVKGRFTISRDNAKNTVYLQMNSLKPEDTAVYYCAAYRIHVYPAGLSWQYYYELDYWGQGTQVTVSS | high polyreactivity
QVQLVESGGGLVQAGGSLRLSCAASGRTFRNYAMGWYRQAPGKERELVAGITYSGGSTFYADSVKGRFTISRDNAKNTVYLQMNSLKPEDTAVYYCAAVYVQYYWLGRSRGLDYWGQGTQVTVSS | high polyreactivity
QVQLVESGGGLVQAGGSLRLSCAASGRTFRPNAMGWYRQAPGKERELVASITRRGGTTYYADSVKGRFTNSRDNAKNTVYLQMNSLKPEDTAFYYCIGPRGYSSTRNGYWGQGTQVTVSS | high polyreactivity
QVQLVESGGGLVQAGGSLRLSCAASGRTFRPYAMGWYIQAPGKERELVAAIDSSGTSTYYADSVKGRFTISRDNAKNTVYLQMNSLKPEDTAVYYCAKAWPDHWYSRYDYWGQGTQVTVSS | low polyreactivity
QVQLVESGGGLVQAGGSLRLSCAASGRTFRPYAMGWYRQAPGKERELVAAIDSSGTSTYYADSVKGRFTISRDNAKNTVYLQMNCLKPEDTAVYYCNTSLKRRRLRFNYWGQGTQVTVSS | low polyreactivity
QVQLVESGGGLVQAGGSLRLSCAASGRTFRPYAMGWYRQAPGTERELVARITSGGGRTYYADSVKGRFTISRDNAKNTVYLQMNSLKPEDNAVYYCNKAIYSLYRDGYTNFDYWGQGTQVTVSS | high polyreactivity
QVQLVESGGGLVQAGGSLRLSCAASGRTFRPYPMGWYRQAPGKERELVAAITRSGGSTYYADSVKGRFTISRDNAKNTVYLQMNSLKPEDTAVYYCAAYNTYSDTYDYWGQGTQVTVSS | low polyreactivity
QVQLVESGGGLVQAGGSLRLSCAASGRTFRRNAMGWYRQAPGKERELVADISNGDSTKYADSVKGRFTISRDNAKNTVYLQMNSLKPEDTAVYYCNAQRYRVVVYNSHGWQTRNYWGQGTQVTVSS | low polyreactivity
QVQLVESGGGLVQAGGSLRLSCAASGRTFRRSAMGWYRQAPGKEREFVAAISVSGDSTYADSVKGRFTISRDNAKNTVYLQMNSLKPEDTAVYYCAAVYWYCGWKVDYWGQGTQVTLSS | low polyreactivity
QVQLVESGGGLVQAGGSLRLSCAASGRTFRRYAMGWYRQAPGKERELVAAISSSSGTTYYADSVKGRFTISRDNEKNTDYLQMNSLKPEDTAVYYCAAYSRYTTRQYDYWGQGTQVTVSS | high polyreactivity
QVQLVESGGGLVQAGGSLRLSCAASGRTFRRYAMGWYRQAPGKERELVAAITRGGSTNYADSVKGRFTISRDNAKDTVYLQMNSLKPEDTAVYYCAKDPLATFYGYWGQGTQVTVSS | high polyreactivity
QVQLVESGGGLVQAGGSLRLSCAASGRTFRRYTMGWYRQAPGKERELVAAITTSGGSTYYADSVKGRFTISRDNAKNTVYLQMNSLKPEDTAVYYCAATRRYSGDYWGQGTQVTVSS | high polyreactivity
QVQLVESGGGLVQAGGSLRLSCAASGRTFRSNAMGWFRQAPGKERELVAAISRTGRTNYADSVKGRFTISRDNAKNTVYLQMNSLKPEDTAVYYCAARGYSVPWQERYDYWGQGTQVTVSS | high polyreactivity
QVQLVESGGGLVQAGGSLRLSCAASGRTFRSNAMGWYRQAPGKERELVAAIRTSGGSTYYADSVKGRFTISRDNAKNTVYLQMNSLKPEDTAVYYCNAELRDLEFDYWGQGTQVTVSS | low polyreactivity
QVQLVESGGGLVQAGGSLRLSCAASGRTFRSNAMGWYRQAPGKERELVAVITRSGGSTDYADSVKGRFTISRDNAKNTVYLQMNSLKPEDTAVYYCAVRRYDYWGQVTQVTVSS | high polyreactivity
